Laboratory results reported in publication PMC12443421.
Like-named read-outs stand apart in the source and are kept apart here.

Legend:
[1] = molecular target: acidic patch mutant (APM) unmodified 147 bp nucleosome (H2A E61A, E64S, N68A, D72S, N89A, D90A, E91S), P62807;Q71DI3;P62805; assay: EMSA
[2] = molecular target: acidic patch mutant (APM) H3K4me3 147 bp nucleosome (human) (UniProt P62807)
[3] = molecular target: acidic patch mutant (APM) unmodified 147 bp nucleosome (H2A E61A, E64S, N68A, D72S, N89A, D90A, E91S) (human) (UniProt P62807); assay: native gel or EMSA; direct binding: 100 nM nucleosome and varying KDM5A; 50 mM HEPES pH 7.5, 50 mM KCl, 1 mM BME, 0.01% Tween-20, 0.01% BSA, 5% sucrose; 1 h on ice; gel at 4 C; SYBR gold; fit to specific binding with Hill slope
[4] = molecular target: acidic patch mutant (APM) H3K4me3 147 bp nucleosome (human) (UniProt P62807); assay: as above
[5] = molecular target: KDM5A^CAT (lysine demethylase 5A, residues 1-801) (UniProt P29375); assay: EMSA

KDM5A^CAT (lysine demethylase 5A, residues 1-801) (from UniProt P29375 1-801) (domain or fragment), sequence (P29375 1-801): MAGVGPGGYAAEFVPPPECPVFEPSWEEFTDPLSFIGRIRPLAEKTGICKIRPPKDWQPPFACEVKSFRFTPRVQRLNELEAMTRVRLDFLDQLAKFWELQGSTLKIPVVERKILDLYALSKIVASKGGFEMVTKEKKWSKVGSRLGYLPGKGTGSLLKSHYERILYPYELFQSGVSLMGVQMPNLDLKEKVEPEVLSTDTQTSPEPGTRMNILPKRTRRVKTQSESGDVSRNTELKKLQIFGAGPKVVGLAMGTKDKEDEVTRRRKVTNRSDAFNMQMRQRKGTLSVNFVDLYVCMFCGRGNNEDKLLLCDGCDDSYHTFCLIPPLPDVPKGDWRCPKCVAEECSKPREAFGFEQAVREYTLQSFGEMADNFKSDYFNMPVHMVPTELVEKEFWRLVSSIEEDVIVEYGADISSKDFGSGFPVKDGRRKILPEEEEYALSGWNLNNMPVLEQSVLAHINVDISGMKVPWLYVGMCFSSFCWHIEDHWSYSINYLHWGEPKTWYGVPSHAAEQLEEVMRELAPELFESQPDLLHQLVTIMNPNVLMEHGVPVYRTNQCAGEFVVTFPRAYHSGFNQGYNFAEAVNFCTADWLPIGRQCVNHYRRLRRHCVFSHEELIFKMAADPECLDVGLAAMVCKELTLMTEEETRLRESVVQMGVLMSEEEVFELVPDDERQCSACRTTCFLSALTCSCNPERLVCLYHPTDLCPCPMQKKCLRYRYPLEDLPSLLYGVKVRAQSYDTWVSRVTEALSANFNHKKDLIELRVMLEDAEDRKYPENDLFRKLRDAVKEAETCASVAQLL

“KDM5A^CAT (lysine demethylase 5A, residues 1-801) (from UniProt P29375) R210A; R217A; R219A; R220A; R232A; R264A; R265A; R266A; R271A; R280A; R282A” showed a Kd [1] of 14 µM and a Kd ([1]; 0-32 µM KDM5A^MutR titration) of 14 µM.

In the case of “KDM5A^CAT (lysine demethylase 5A, residues 1-801) (from UniProt P29375 1-801) (domain or fragment)”, the fold decrease in demethylation of H3K4me3 on APM 147 bp nucleosomes relative to wild-type nucleosomes, quantitative western blot, single turnover (5 uM KDM5A enzyme, 50 nM substrate, 50 mM KCl) [2] is reported as 9 fold, the fold loss in affinity relative to the wild-type 147 bp nucleosome [3] is reported as 3 fold and the fold lower affinity relative to the wild-type H3K4me3 nucleosome [4] is reported as 4 fold.

“KDM5A^CAT (lysine demethylase 5A, residues 1-801) (from UniProt P29375) R217A; R219A; R220A” gave a Kd [1] of 15 µM.

Work on “KDM5A^CAT (lysine demethylase 5A, residues 1-801) (from UniProt P29375) R264A; R265A; R266A; R271A” yielded a Kd [1] of 10.1 µM.

For “KDM5A^CAT (lysine demethylase 5A, residues 1-801) (from UniProt P29375) R280A; R282A”, the Kd [1] was 12 µM.

“wild-type unmodified 147 bp nucleosome (nucleosome core particle) (from UniProt P04908;P62807;Q71DI3;P62805) H2A:E61A; H2A:E64S; H2A:N68A; H2A:D72S; H2A:N89A; H2A:D90A; H2A:E91S” gave a Kd [5] of 12 µM.
